Experimental data: patent publication US20150104385A1, “RADIO-PHARMACEUTICAL COMPLEXES” (Algeta ASA, priority 2012, published 2015)

Biological target: T1, CD22 (Homo sapiens, UniProt P20273)
T1 construct: host or cells: Raji cells
Test: Binding of AGC1115 and AGC1100 to CD22-positive Raji cells by flow cytometry
Conditions: flow cytometry MFI, 1.5 h at 4° C., four-parameter fit, read-out: EC50 of fitted titration curve (binding potency)
Experimental: Binding of AGC1115 and AGC1100 (anti-human CD22, Immunomedics; hLL2, #1003164, 10 mg/ml) to CD22-positive Raji cells (ATCC, #CCL-86) was analysed by flow cytometry. The EC50 value determined from the fitted curve was used for comparison of the antibody versus the antibody conjugate binding potency. This analysis was used to confirm that antibody conjugate binding potency to CD22 was unaffected by the conjugation procedure.
Raji cells were grown in RPMI 1640 (PAA; #E15-840) in the presence of 10% fetal bovine serum (FBS) and 1% penicillin/streptomycin. For the flow cytometry analysis 50 ml cell culture was harvested by centrifugation at 4° C. for 5 min at 340×g. […] Subsequently, 20 μl of the preparation of resuspended cells was diluted 1:500 in Coulter Isoton II Diluent, and counted using Beckman Coulter Z2 instrumentation (Beckman Coulter; CA, USA). […]
AGC1115 and AGC1100 was diluted to 50 μg/ml and titrated in twelve points in 3-fold dilution steps. […] All samples were analysed in a V-shaped bottom 96-well plate. Fluorescent signal was recorded on a Beckman Coulter Cell Lab Quanta SC MPL flow cytometer (Beckman Coulter; CA, USA). […]
Data was fitted using the “log(agonist) vs. response—Variable slope (four parameters)” binding model in Graph Pad Prism (PrismSoftware; CA, USA) and the EC50 values was calculated from the fit (FIG. 2).

- EC50: 9 nM
Substance: AGC1100: anti-CD22 monoclonal antibody hLL2, also called epratuzumab
